B1: D37E: nnH3H hispidin hydroxylase variant with single substitution D37E (protein, listed as Neonothopanus nambi)
chain: MASFENSLSVLIVGAGLGGLAAAIALRRQGHVVKIYESSSFKAELGAGLAVPPNTLRSLQQLGCNTENLNGVDNLCFTAMGYDGSVGMMNNMTDYREAYGTSWIMVHRVDLHNELMRVALDPGGLGPPATLHLNHRVTFCDVDACTVTFTNGTTQSADLIVGADGIRSTIRRFVLEEDVTVPASGIVGFRWLVQADALDPYPELDWIVKKPPLGARLISTPQNPQSGVGLADRRTIIIYACRGGTMVNVLAVHDDERDQNTADWSVPASKDDLFRVFHDYHPRFRRLLELAQDINLWQMRVVPVLKKWVNKRVCLLGDAAHASLPTLGQGFGMGLEDAVALGTLLPKGTTASQIETRLAVYEQLRKDRAEFVAAESYEEQYVPEMRGLYLRSKELRDRVMGYDIKVESEKVLETLLRSSNSA
B2: V181I: nnH3H hispidin hydroxylase variant with single substitution V181I (protein, listed as Neonothopanus nambi)
chain: MASFENSLSVLIVGAGLGGLAAAIALRRQGHVVKIYDSSSFKAELGAGLAVPPNTLRSLQQLGCNTENLNGVDNLCFTAMGYDGSVGMMNNMTDYREAYGTSWIMVHRVDLHNELMRVALDPGGLGPPATLHLNHRVTFCDVDACTVTFTNGTTQSADLIVGADGIRSTIRRFVLEEDVTIPASGIVGFRWLVQADALDPYPELDWIVKKPPLGARLISTPQNPQSGVGLADRRTIIIYACRGGTMVNVLAVHDDERDQNTADWSVPASKDDLFRVFHDYHPRFRRLLELAQDINLWQMRVVPVLKKWVNKRVCLLGDAAHASLPTLGQGFGMGLEDAVALGTLLPKGTTASQIETRLAVYEQLRKDRAEFVAAESYEEQYVPEMRGLYLRSKELRDRVMGYDIKVESEKVLETLLRSSNSA
B3: A183P: nnH3H hispidin hydroxylase variant with single substitution A183P (protein, listed as Neonothopanus nambi)
chain: MASFENSLSVLIVGAGLGGLAAAIALRRQGHVVKIYDSSSFKAELGAGLAVPPNTLRSLQQLGCNTENLNGVDNLCFTAMGYDGSVGMMNNMTDYREAYGTSWIMVHRVDLHNELMRVALDPGGLGPPATLHLNHRVTFCDVDACTVTFTNGTTQSADLIVGADGIRSTIRRFVLEEDVTVPPSGIVGFRWLVQADALDPYPELDWIVKKPPLGARLISTPQNPQSGVGLADRRTIIIYACRGGTMVNVLAVHDDERDQNTADWSVPASKDDLFRVFHDYHPRFRRLLELAQDINLWQMRVVPVLKKWVNKRVCLLGDAAHASLPTLGQGFGMGLEDAVALGTLLPKGTTASQIETRLAVYEQLRKDRAEFVAAESYEEQYVPEMRGLYLRSKELRDRVMGYDIKVESEKVLETLLRSSNSA
B4: S323M: nnH3H hispidin hydroxylase variant with single substitution S323M (protein, listed as Neonothopanus nambi)
chain: MASFENSLSVLIVGAGLGGLAAAIALRRQGHVVKIYDSSSFKAELGAGLAVPPNTLRSLQQLGCNTENLNGVDNLCFTAMGYDGSVGMMNNMTDYREAYGTSWIMVHRVDLHNELMRVALDPGGLGPPATLHLNHRVTFCDVDACTVTFTNGTTQSADLIVGADGIRSTIRRFVLEEDVTVPASGIVGFRWLVQADALDPYPELDWIVKKPPLGARLISTPQNPQSGVGLADRRTIIIYACRGGTMVNVLAVHDDERDQNTADWSVPASKDDLFRVFHDYHPRFRRLLELAQDINLWQMRVVPVLKKWVNKRVCLLGDAAHAMLPTLGQGFGMGLEDAVALGTLLPKGTTASQIETRLAVYEQLRKDRAEFVAAESYEEQYVPEMRGLYLRSKELRDRVMGYDIKVESEKVLETLLRSSNSA
B5: M385K: nnH3H hispidin hydroxylase variant with single substitution M385K (protein, listed as Neonothopanus nambi)
chain: MASFENSLSVLIVGAGLGGLAAAIALRRQGHVVKIYDSSSFKAELGAGLAVPPNTLRSLQQLGCNTENLNGVDNLCFTAMGYDGSVGMMNNMTDYREAYGTSWIMVHRVDLHNELMRVALDPGGLGPPATLHLNHRVTFCDVDACTVTFTNGTTQSADLIVGADGIRSTIRRFVLEEDVTVPASGIVGFRWLVQADALDPYPELDWIVKKPPLGARLISTPQNPQSGVGLADRRTIIIYACRGGTMVNVLAVHDDERDQNTADWSVPASKDDLFRVFHDYHPRFRRLLELAQDINLWQMRVVPVLKKWVNKRVCLLGDAAHASLPTLGQGFGMGLEDAVALGTLLPKGTTASQIETRLAVYEQLRKDRAEFVAAESYEEQYVPEKRGLYLRSKELRDRVMGYDIKVESEKVLETLLRSSNSA
B6: T99P: nnLuz luciferase variant with single amino acid substitution T99P (protein, UniProt A0A3G9JYH7 1-267, looked up, variant T99P)
Luciferase: MRINISLSSLFERLSKLSSRSIAITCGVVLASAIAFPIIRRDYQTFLEVGPSYAPQNFRGYIIVCVLSLFRQEQKGLAIYDRLPEKRRWLADLPFREGPRPSITSHIIQRQRTQLVDQEFATRELIDKVIPRVQARHTDKTFLSTSKFEFHAKAIFLLPSIPINDPLNIPSHDTVRRTKREIAHMHDYHDCTLHLALAAQDGKEVLKKGWGQRHPLAGPGVPGPPTEWTFLYAPRNEEEARVVEMIVEASIGYMTNDPAGKIVENAK
B7: T192S: nnLuz luciferase variant with single amino acid substitution T192S (protein, listed as Neonothopanus nambi)
chain: MRINISLSSLFERLSKLSSRSIAITCGVVLASAIAFPIIRRDYQTFLEVGPSYAPQNFRGYIIVCVLSLFRQEQKGLAIYDRLPEKRRWLADLPFREGTRPSITSHIIQRQRTQLVDQEFATRELIDKVIPRVQARHTDKTFLSTSKFEFHAKAIFLLPSIPINDPLNIPSHDTVRRTKREIAHMHDYHDCSLHLALAAQDGKEVLKKGWGQRHPLAGPGVPGPPTEWTFLYAPRNEEEARVVEMIVEASIGYMTNDPAGKIVENAK
B8: A199P: nnLuz luciferase variant with single amino acid substitution A199P (protein, listed as Neonothopanus nambi)
chain: MRINISLSSLFERLSKLSSRSIAITCGVVLASAIAFPIIRRDYQTFLEVGPSYAPQNFRGYIIVCVLSLFRQEQKGLAIYDRLPEKRRWLADLPFREGTRPSITSHIIQRQRTQLVDQEFATRELIDKVIPRVQARHTDKTFLSTSKFEFHAKAIFLLPSIPINDPLNIPSHDTVRRTKREIAHMHDYHDCTLHLALAPQDGKEVLKKGWGQRHPLAGPGVPGPPTEWTFLYAPRNEEEARVVEMIVEASIGYMTNDPAGKIVENAK

Experiments:
HEK293 cells = assay: Hispidin hydroxylase activity in HEK293 cells co-transfected with nnLuz_v3, hispidin added, normalized to HiBiT; assay type: cell-based
Protocol: A library of amino acid substitutions was created applying mutagenesis to a gene encoding the hispidin hydroxylase derived from Neonothopanus nambi (SEQ ID NO: 12). This was achieved by the same method as described in Example 1. Activity was evaluated in HEK293 cells co-transfected with a gene encoding nnLuz_v3. Bioluminescence was measured as described in Example 1, except with addition of hispidin instead of luciferin.
To estimate specific activity, both luciferase activity and HiBiT were measure for each sample (see Example 2). Activity of each variant was then normalized to the expression level (i.e., luciferase bioluminescence/HiBiT signal). Substitutions at 28 positions were examined by this method.

[1] = Enzyme thermostability in cleared E. coli lysates incubated at 22° C.; assay type: biochemical; details: then 100 μM luciferin
Protocol: To assess the effect on enzyme thermostability by the amino acid substitutions, lysates of transformed E. coli were prepared by sonication and cleared by centrifugation. The cleared lysates were diluted 1:100 into Tris-buffered saline with 0.01% BSA and 0.1% n-dodecyl β-D-maltoside. 100 μl of each diluted lysate were added to a 96-well PCR plate. Samples were incubated at 22° C. and at various time points aliquots were placed on ice. When all of the samples were processed, 50 μl of each was combined with 50 μl of 100 μM luciferin in Tris-buffered saline with 0.01% BSA and 0.1% n-dodecyl β-D-maltoside. Samples were immediately placed in a GloMax®-Multi+luminometer (Promega) to measure bioluminescence.

[2] = Luciferase luminescence in E. coli lysates after luciferin addition; assay type: biochemical; details: 100 μM luciferin, maximal brightness
Description: A library of amino acid substitutions was created applying mutagenesis to a gene encoding the luciferase derived from Neonothopanus nambi (SEQ ID NO: 8). pF4Ag shuttle vector (Promega) was used for gene expression in E. coli (T7 promoter-driven expression) and mammalian cells (CMV promoter-driven expression). The pF4Ag vector backbone introduces a C-terminal 3×-FLAG-HiBiT tag. Site-directed mutagenesis was used to substitute consensus amino acids at selected position in the luciferase sequence. Gene expression was performed in the E. coli strain KRX (Promega), which enables rhamnose-inducible expression of T7 RNA polymerase.
Colonies (in triplicate) were used to inoculate LB broth containing ampicillin ([…]) and cultures grown overnight in 96-well microtiter plates (20 hours, 37° C.). Cultures were diluted into fresh LB containing 0.1% rhamnose and ampicillin and grown for 3 hours at 37° C. 50 μl of the induced culture was lysed for 5 minutes at ambient temperature with a reagent consisting of 25 mM HEPES pH 7.5 and 0.3×PLB (E1941 Promega). 50 μl of lysate was combined with 50 μl luciferin (100 μM) in the lysis buffer and samples were measured for total luminescence using a GloMax®-Multi+luminometer. (Promega).

Row | Molecule | bioluminescence over parental enzyme nnH3H_WT, normalized to expression level (HiBiT) (HEK293 cells) | enzyme stability relative to unmodified parental luciferase [1] | production of bioluminescence relative to parental nnLuz [2]
1 | B1 | significantly increased bioluminescence | – | –
2 | B2 | significantly increased bioluminescence | – | –
3 | B3 | significantly increased bioluminescence | – | –
4 | B4 | significantly increased bioluminescence | – | –
5 | B5 | significantly increased bioluminescence | – | –
6 | B6 | – | more stable | significant improvements
7 | B7 | – | more stable | significant improvements
8 | B8 | – | more stable | significant improvements

Reference: patent publication US20250075191A1, “MODIFIED BIOLUMINESCENT ENZYMES” (Light Bio, Inc., priority 2023, published 2025)
